Assay results as given in the domain aggregation screens of Martell et al. (2025).

experiment: soluble fraction after stress (log2 fold change); higher = more stays soluble; pooled small domains, quantitative proteomics; details: stress: pH 4
Method in brief: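 Aggregation propensity is read out as the fold change in how much of each domain remains soluble after acid stress. The custom small-domain libraries were pooled, held at pH 4 and analysed with high-throughput quantitative proteomics. On the log2 scale used, higher values mean more of the domain stayed soluble.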

| Sequence | soluble fraction (log2) |
| --- | --- |
| HMEDNKLKNEIKNELVSHLEKPYSVEDLADALKYHGSAAFKLIVQELAILERERAVVVTHDGNFKINSS | -0.0181 |
| HMKRVPFAFAGDMLRWAAWLYHVEKRTQNEIAEELEVSRQTVANYLSEAMSQGLVQVQLRSDIIE | -1.39 |
| HMGDEHYDTISAFIKSVRGSDPDAALYWLAKMILAGEDPRFILRRLIVLSGEDIGLADPQGI | -0.346 |
| HMNQKVRQLLSQAQAEMERKNYKQAIKLLDQALAIEPHSGELHFMKGYAWMSMGEFEKALESLYEARNYA | -0.754 |
| HMPKHHIESVIPENFAGERLDKVLAVLWGTFSRAQLTRWIRDGSLLLDGHKVKPNTKVDGSEKIVLQAEVA | 0.0479 |
| HMTEPIESVTTIAGRRIPYRLVRSLRARRMRMTIKESQVTVTLPRGVPLGEAERFLQQNAAWLFKQLDKP | 0.162 |
| HMLETILQIGKDGVGENLVKQVNDALEARELIKGRVLDNNLELDARTAAQILAKATRSEVVQVIGTKFV | 0.0332 |
| HMRTTYKTRLETLLAGPMSAGDRRFASSLLDFYNRKNRLTPGRARFVAQLEDRYSAEALAARQG | -0.00949 |
| HMDVNHVIIDHKGNSIQAIIDSIDLDNVYYQSKIKKESEVIDIDKVYFIFNDFDRVYHYDWSYYENL | -0.468 |
| HMKVQEMTANSFLTQWEAGNVKTLDILPEGIIKGELNDGTKFQLYYSSAAGLIDDVKKNPEKFANTTVSEK | -0.238 |
| HMDSNPLSEREQEVLQLVAKGASNQTIAEQLFLSNGTIRNYMTAIFNKLNANNRTDAVRIARENGW | -0.24 |
| HMTTIPAGRQQYILSLIRREGTVTVSRLAQELEVSELTIRRDLDQMAARNLVERTHGGATERR | ≥ 0.43 |
| HMRHYVLKENNGVIAIYKVNQENEAVFKENTQIQVQYLPEVDLINLKKGIYAIGEEKLNSILEDF | -0.892 |
| HMNTEFDVPDVVGKTLDEAEFVLKGSNLKRGLIMPVDDPSKAPGTIVRQNPEAGAGNKIRVGDVVDLWVVG | 0.187 |
| HMGGEEINMINLVGLSQSEAENQLAKLKLKIGQVTAEYSDKPSGTVLKQSISANNKVKKGADIDIVVSKG | 0.207 |
| HMKHRTQMDIQQLPAIEGKGGFEYKISIIHLSTRIKYSEIHDNYNTTTIAKVYENAIERLPPF | -1.13 |
| HMGITDHIYQDLKKRLENGNYPAGTRFPSESTLADEFSVNKMTMNKIVSMLAEQGYLIRGNRGAGTRVAEN | -0.0244 |
| HMQYDSYTVEEPAKLLDWLLAHLRQSRTKIKATLQGHGIKVNGKTVTQFDYPLEPGMKIRVSLTK | -0.622 |
| HMPKNEHETKAIGNQTGGRVFLFLNTDNINRDYNMYISKQVKFVREISQEYYGKVAVFEDLYGNLWDLIE | -0.222 |

| Sequence | soluble fraction (log2) |
| --- | --- |
| HMHTDQVLVMTRAVGQGEIVRNTDVGLTSVAVDRAVTTIPASQLDEIVGRHALVDLSAGQLLGSHSVGA | -0.0551 |
| HMSKLSVSSLSSPEVQNQLKAAGIDVNSRQYQVVMKDMMGALDGRAGYTTVSAIKNRMRQYNADGDY | 0.19 |
| HMKQISNTDELESMAKNIIQENPDQVSKFKNGNEKLFGWFVGQMMKSTGGTANPKVVNEILKNLLN | 0.162 |
| HMPYIVNHIHLKSEDPKITADWFVKAFNFEIVSDVVRHFGDRFIVTKAEGGMTINISGVRDGEEL | 0.262 |
| HMDERLLRLYERELQFLREGADEFAQAYPKVAGHLGLNSQSMGDPFIERLLEGLGFLTARIQLQLESEF | -0.823 |
| HMPTQGELAILRVLWEQGPSTVRAVWEKLNSQSGTGYTTALKLMQIMAQKGLVSRDESQKTHVYRA | -0.511 |
| HMKNLDILTPKEIEVLNLVAKGYSNSKISKELDIAEVTVKKHIGSMFQKLDVKDRLSLALIL | -0.52 |
| HMTFVHTQIEATKEWIISHPLDKHPAVAVVDSAGSIVIGEVDYISKSIVRLRFTAEFSGKAYL | -1.79 |
| HMQKVPDAFKAEQVQTLITRLGVSRAELARTLDVSLSTVNKWASGAVEPKGSALVLLKVLWMHGFKAL | 0.03 |
| HMLEEIDYPEEQLQLLFAWSRDHVQSTPPGLPVVDDHVWHILVRGYGATDQRTEAFALLASYAGFP | -0.722 |
| HMVENMDEFIGRVRRLVSDRLDLLKEASDDEIRETISQVVLELSREQFLTLNEKKTVLEGVFNSMR | -1.38 |
| HMVKRAYGEYVNVKLTDADLSKLKADFPADWQERIERLSTYMASTGKTYKNHLATIRNWARRDAERVSA | -0.292 |
| HMIVLPGEELEVHIVQEGKEDGQGVAYLDDGTMVVVEGGRPYVDSFAYVAVTRVLQTGAGRIIFAHPTR | -0.108 |
| HMRGYGDRIRILRERAGITIEQLAERLGVAPYFIRRTELSEVYPTKPYIEALADVLNIDASYLARHI | -0.972 |
| HMIYNSGTTDSRGEAIVGGYLVTVTDTDTKDPVANAAVTLHKDNSISIRLPNSRLLDYADQTTVTVQLV | -0.00411 |
| HMVKIVWSKEGPYVGTRVRRYFSQGPVDGTVVMYAKPQKGDDVALWRISHDDGDEEDLEEQELRLAID | -1.69 |
| HMNSVKSPMPGTILGLKVSVGDTVKVGDELLVLESMKMENMINSPIDGTVSKILISEGDSVQHGQELII | 0.102 |
| HMEVVELTDDEKMILATLHDGPVEIGHIKQVVGLSGKKWDAATKSLRQKGLINVVLENEQKLMVK | -0.0453 |
| HMSNEYLMPNLIGMSWDEAKSKYSQYMTLVPEQEWSEVTKDQIFDQEYPEGRKVKIGTEVTVKVSMGI | 0.228 |
